Values quoted from earlier work in PMC8980424.

Columns and labels:
IFNAR1 (Homo sapiens) = IFNAR1 (Homo sapiens) (UniProt P17181)
IFNAR2 (Homo sapiens) = IFNAR2 (Homo sapiens) (UniProt P48551)
IFNAR2 (Mus musculus) = IFNAR2 (Mus musculus) (UniProt O35664)
IFNAR1 (Mus musculus) = IFNAR1 (Mus musculus) (UniProt P33896)
UniProt P33896, sequence (P33896 27-429): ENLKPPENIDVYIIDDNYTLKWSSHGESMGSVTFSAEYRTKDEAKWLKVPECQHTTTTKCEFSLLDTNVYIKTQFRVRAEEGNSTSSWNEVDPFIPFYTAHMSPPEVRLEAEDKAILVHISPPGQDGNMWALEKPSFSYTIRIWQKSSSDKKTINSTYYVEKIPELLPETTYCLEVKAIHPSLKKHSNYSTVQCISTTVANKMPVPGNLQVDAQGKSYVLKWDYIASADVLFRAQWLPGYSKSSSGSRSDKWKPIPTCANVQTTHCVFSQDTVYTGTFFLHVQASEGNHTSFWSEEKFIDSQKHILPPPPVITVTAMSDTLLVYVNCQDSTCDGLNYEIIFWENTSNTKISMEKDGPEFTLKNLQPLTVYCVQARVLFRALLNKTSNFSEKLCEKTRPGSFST

UniProt P48551, sequence (P48551 27-243): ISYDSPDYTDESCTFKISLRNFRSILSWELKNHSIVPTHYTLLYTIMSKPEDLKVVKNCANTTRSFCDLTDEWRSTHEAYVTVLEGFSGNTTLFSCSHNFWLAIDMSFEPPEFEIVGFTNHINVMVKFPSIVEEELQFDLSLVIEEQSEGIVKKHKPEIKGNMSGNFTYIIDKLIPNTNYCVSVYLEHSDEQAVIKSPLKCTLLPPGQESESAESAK
UniProt O35664, sequence (O35664 22-242): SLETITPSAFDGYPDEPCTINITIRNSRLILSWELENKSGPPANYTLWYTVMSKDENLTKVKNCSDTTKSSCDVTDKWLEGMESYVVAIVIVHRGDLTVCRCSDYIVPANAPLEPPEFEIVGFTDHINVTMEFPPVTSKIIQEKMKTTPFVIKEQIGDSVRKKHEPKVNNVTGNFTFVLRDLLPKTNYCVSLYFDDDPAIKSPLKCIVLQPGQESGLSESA
UniProt P17181, sequence (P17181 28-436): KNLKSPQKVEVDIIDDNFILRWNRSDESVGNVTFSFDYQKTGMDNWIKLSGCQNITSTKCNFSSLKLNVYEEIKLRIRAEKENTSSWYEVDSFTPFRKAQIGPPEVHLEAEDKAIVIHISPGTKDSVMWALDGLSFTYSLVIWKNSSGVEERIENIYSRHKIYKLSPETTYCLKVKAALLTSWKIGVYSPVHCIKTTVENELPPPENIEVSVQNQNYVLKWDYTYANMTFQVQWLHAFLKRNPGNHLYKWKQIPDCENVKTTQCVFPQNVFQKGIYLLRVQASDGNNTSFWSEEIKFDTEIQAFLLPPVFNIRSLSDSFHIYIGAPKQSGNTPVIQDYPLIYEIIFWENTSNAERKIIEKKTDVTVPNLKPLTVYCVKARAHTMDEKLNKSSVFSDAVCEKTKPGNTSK

Kd (IFNAR1 (Homo sapiens)) [nM]	Kd (IFNAR2 (Homo sapiens)) [nM]	Kd (IFNAR2 (Mus musculus)) [nM]	Kd (IFNAR1 (Mus musculus)) [nM]	Substance
30	0.1	–	–	Interferon beta (from UniProt P01574)
–	–	1700	10	Interferon beta (from UniProt P01575)
